Patent US20210061891A1 (DUKE UNIVERSITY, published 2021)
Changes are numbered by the printed parent chain. Ends that are not written are not given here.

T1: residue mutated to A: P (also: biotinylated, attachment site not given here)
T1 construct: position from the legend (CFH1114-1121)
T1 peptide: GPPPAIDNGDITSFP

T2: residue mutated to A: I (also: biotinylated, attachment site not given here)
T2 construct: position from the legend (CFH1114-1121)
T2 peptide: GPPPPADNGDITSFP

T3: residue mutated to A: D (3rd column) (also: biotinylated, attachment site not given here)
T3 construct: position from the legend (CFH1114-1121)
T3 peptide: GPPPPIANGDITSFP

T4: residue mutated to A: N (also: biotinylated, attachment site not given here)
T4 construct: position from the legend (CFH1114-1121)
T4 peptide: GPPPPIDAGDITSFP

T5: residue mutated to A: G (also: biotinylated, attachment site not given here)
T5 construct: position from the legend (CFH1114-1121)
T5 peptide: GPPPPIDNADITSFP

T6: residue mutated to A: D (6th column) (also: biotinylated, attachment site not given here)
T6 construct: position from the legend (CFH1114-1121)
T6 peptide: GPPPPIDNGAITSFP

T7: residue mutated to A: T (also: biotinylated, attachment site not given here)
T7 construct: position from the legend (CFH1114-1121)
T7 peptide: GPPPPIDNGDIASFP

B1: Ab7957/293i (antibody, V domains shown)
VH: LVESGGGVVPPGKSLRLSCAASGFTFSLYGIHWVRQAPGKGLEWVAVISYDGNTKYYTDSVKGRFTISRDNAKNTIYLQMNSLRLDDTAVYYCAKGAANSATFDFWGRGTMVTVSS
VL: MTQSPDSLTLSLGERATINCRSSRTVLYRSNNKNYLAWYQHKPGQPPKLLMSWASTRETGVPDRFSGSGSGTHFTLTITSLQPEDVAVYYCQQYYSPPWTFGQGTKVEIR
notes: Recombinant human mAb
B2: Ab7964 (antibody, V domains shown)
VH: LVESGGGVVQPGRSLRLSCAASGVTFSRYGMHWVRQAPGKGLEWVAVISYDEKTKYYADSVKGRFTISRDNSKNTLFLHMNRLRYEDTAVYYCAKGASSGAYFDYWGQGTLVTVSS
VL: not shown
notes: Recombinant human mAb
B3: Ab7961/293i (antibody, V domains shown)
VH: LVESGGGVVQPGKSLRLSCVASGFTFSSYGMHWVRQAPGKGLEWVAVMSFDGKTKYYADSVKGRFTISRDNPKNTLYLQMNSLRSEDTAVYYCAKGGAAAAVFDSWGQGILLTVSS
VL: MTQSPNSLAVSLGGRATINCKTSQSILYRSNNKNYLAWYQHKSGQPPKLLIYWASTRESGVPDRFSGSGSRTDFTLTISGLQAEDVAVYYCQQYYNPPWTFGQGTKVEIK
notes: Recombinant human mAb
B4: Ab7979 (antibody, V domains shown)
VH: B3 VH with S28T
VL: B3 VL with S43P, G60R
notes: Recombinant human mAb
B5: Ab7960/293i (antibody, V domains shown)
VH: B3 VH with T25S, S28T, Q108P
VL: B3 VL with T22A, S43A, D63E, S79N
notes: Recombinant human mAb
B6: CFH mAb7968 (antibody, V domains shown)
VH: LVESGGGVVQPGRSLRLSCAASGFTFSRYGMHWVRQAPGKGLEWVAVMSYDGSTKYYADSVKGRFAISRDNPKNTLFLQMNSLRPDDTAVYYCAKGGAAAAVMDVWGKGTTVTVSS
VL: MTQSPDSLTVSLGERATISCKSSQRLLYSSNNKNYLAWYQQKPGQPPKLLMYWASTRESGVPDRFSGSGSGTDFSLTISSLQAEDVAVYYCQQYYNPPWTFGQGTKVEVK
notes: also called CBAb1
B7: Ab7955 (antibody, V domains shown)
VH: LVESGGGVVRPGRSLRLSCVASGFTFNAYGMHWVRQGPGKGLEWLAVISYEGKTVYYADSVKDRFTISRDNSRNTVSLHLNNLRGEDTAVYYCAKGSASAAVLQHWGQGTLVSVTS
VL: MTQSPGSLAVSLGSRATINCKSSRSLLYRSNNKNYLAWYQQKPGQSPRLLIYWASSRESGVPDRFSGGGSGTSFTLTISSLQAEDVAVYYCQQYFNPPWTFGQGTKVEIK
notes: Recombinant human mAb

Molecular target: T8, reduced Complement Factor H (CFH treated with TCEP) (human, UniProt P08603 19-1231, disulfide bonds reduced with TCEP)
T8 construct: also called reduced CFH; conformationally distinct form of CFH
Test: immunoblot (Surf-Blot), CFH treated with TCEP (reduced) before electrophoresis; anti-human IgG-HRP

T8 sequence (P08603 19-1231 limits assumed): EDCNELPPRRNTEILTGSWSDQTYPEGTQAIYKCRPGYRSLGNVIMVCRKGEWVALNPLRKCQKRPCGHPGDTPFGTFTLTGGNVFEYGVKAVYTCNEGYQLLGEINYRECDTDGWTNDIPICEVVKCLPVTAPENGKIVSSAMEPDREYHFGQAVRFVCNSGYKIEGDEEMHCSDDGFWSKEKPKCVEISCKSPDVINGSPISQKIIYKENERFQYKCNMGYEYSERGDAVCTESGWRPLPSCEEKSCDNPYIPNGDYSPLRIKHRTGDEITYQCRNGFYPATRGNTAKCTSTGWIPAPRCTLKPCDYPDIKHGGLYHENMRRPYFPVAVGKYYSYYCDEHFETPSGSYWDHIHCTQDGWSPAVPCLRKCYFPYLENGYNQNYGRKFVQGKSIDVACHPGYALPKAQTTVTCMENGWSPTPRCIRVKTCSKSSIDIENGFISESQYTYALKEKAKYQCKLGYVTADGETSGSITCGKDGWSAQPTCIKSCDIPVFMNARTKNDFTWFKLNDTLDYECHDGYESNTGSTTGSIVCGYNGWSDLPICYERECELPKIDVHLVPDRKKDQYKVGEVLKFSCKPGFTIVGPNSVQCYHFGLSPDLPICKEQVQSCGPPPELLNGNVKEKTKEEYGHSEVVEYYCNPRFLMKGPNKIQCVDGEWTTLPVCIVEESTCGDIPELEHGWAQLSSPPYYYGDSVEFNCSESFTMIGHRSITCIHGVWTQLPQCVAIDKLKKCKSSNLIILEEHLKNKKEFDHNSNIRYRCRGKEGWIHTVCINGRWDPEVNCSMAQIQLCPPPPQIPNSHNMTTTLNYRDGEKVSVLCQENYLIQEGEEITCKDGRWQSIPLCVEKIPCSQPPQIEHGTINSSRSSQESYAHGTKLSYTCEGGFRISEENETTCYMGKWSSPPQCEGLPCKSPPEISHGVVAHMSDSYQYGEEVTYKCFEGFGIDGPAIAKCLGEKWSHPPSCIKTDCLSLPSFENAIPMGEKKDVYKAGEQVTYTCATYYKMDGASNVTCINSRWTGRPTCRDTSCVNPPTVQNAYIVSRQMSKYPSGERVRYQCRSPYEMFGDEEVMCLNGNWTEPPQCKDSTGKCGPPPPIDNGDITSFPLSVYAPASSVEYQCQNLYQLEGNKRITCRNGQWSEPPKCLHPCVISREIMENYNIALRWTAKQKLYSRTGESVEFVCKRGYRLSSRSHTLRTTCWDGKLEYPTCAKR

**Q.** Does B1 bind?
**A.** Result: binds

**Q.** Does B2 bind?
**A.** Result: binds

**Q.** Does B3 bind?
**A.** Result: binds

**Q.** Does B4 bind?
**A.** Result: binds

**Q.** Does B5 bind?
**A.** Result: binds

Molecular target: T9, native Complement Factor H (CFH) (human, UniProt P08603 19-1231)
T9 construct: Native, non-reduced CFH; also called native CFH; full-length native CFH
Test: immunoblot (Surf-Blot), CFH treated with Tris-HCl (oxidized) before electrophoresis; anti-human IgG-HRP

T9 sequence (P08603 19-1231 limits assumed): as above

**Q.** Does B1 bind?
**A.** Result: binds

**Q.** Does B2 bind?
**A.** Result: binds

**Q.** Does B3 bind?
**A.** Result: binds

**Q.** Does B4 bind?
**A.** Result: binds

**Q.** Does B5 bind?
**A.** Result: binds

Molecular target: T1, residue mutated to A: P
Test: ELISA on streptavidin-immobilized biotinylated 15mer peptides; area under the signal vs antibody concentration curve;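 also: antibody binding to each alanine-substituted peptide expressed relative to binding to the natural peptide, using curve area determined separately for every peptide-antibody pair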

**Q.** For B6, which “percent of binding to the natural peptide (AUC)” value (“percent of binding” for short) is on record?
**A.** Its value is 73%.

**Q.** For B1, which “percent of binding” value is on record?
**A.** Its value is 61%.

**Q.** B2 was tested. Which “percent of binding” value did it give?
**A.** The value was 74%.

**Q.** Which “percent of binding” value does the source give for B7 here?
**A.** The value was 52%.

**Q.** With B3 as the binder, how does the “percent of binding” value read?
**A.** Its value is 56%.

**Q.** How did the “percent of binding” value turn out when B4 was run?
**A.** The value was 64%.

**Q.** With B5 as the binder, how does the “percent of binding” value read?
**A.** Its value is 53%.

Molecular target: T2, residue mutated to A: I
Test: as above

**Q.** For B6, which “percent of binding” value is on record?
**A.** Its value is 73%.

**Q.** Which “percent of binding” value does the source give for B1 here?
**A.** The value was 61%.

**Q.** For B2, which “percent of binding” value is on record?
**A.** Its value is 76%.

**Q.** Which “percent of binding” value does the source give for B3 here?
**A.** Its value is 52%.

**Q.** How did the “percent of binding” value turn out when B4 was run?
**A.** Its value is 61%.

**Q.** How did the “percent of binding” value turn out when B5 was run?
**A.** The value was 43%.

Molecular target: T3, residue mutated to A: D
Test: as above

**Q.** B6 was tested. Which “percent of binding” value did it give?
**A.** The value was 102%.

**Q.** With B1 as the binder, how does the “percent of binding” value read?
**A.** The value was 100%.

**Q.** Which “percent of binding” value does the source give for B2 here?
**A.** The value was 100%.

**Q.** How did the “percent of binding” value turn out when B7 was run?
**A.** The value was 81%.

**Q.** How did the “percent of binding” value turn out when B3 was run?
**A.** The value was 100%.

**Q.** How did the “percent of binding” value turn out when B4 was run?
**A.** The value was 96%.

**Q.** Which “percent of binding” value does the source give for B5 here?
**A.** The value was 95%.

Molecular target: T4, residue mutated to A: N
Test: as above

**Q.** With B1 as the binder, how does the “percent of binding” value read?
**A.** The value was 30%.

**Q.** B4 was tested. Which “percent of binding” value did it give?
**A.** Its value is 29%.

Molecular target: T5, residue mutated to A: G
Test: as above

**Q.** With B6 as the binder, how does the “percent of binding” value read?
**A.** Its value is 100%.

**Q.** How did the “percent of binding” value turn out when B1 was run?
**A.** The value was 99%.

**Q.** Which “percent of binding” value does the source give for B2 here?
**A.** Its value is 100%.

**Q.** For B7, which “percent of binding” value is on record?
**A.** The value was 104%.

**Q.** Which “percent of binding” value does the source give for B3 here?
**A.** Its value is 104%.

**Q.** Which “percent of binding” value does the source give for B4 here?
**A.** Its value is 102%.

**Q.** Which “percent of binding” value does the source give for B5 here?
**A.** Its value is 99%.

Molecular target: T6, residue mutated to A: D
Test: as above

**Q.** How did the “percent of binding” value turn out when B6 was run?
**A.** Its value is 101%.

**Q.** Which “percent of binding” value does the source give for B1 here?
**A.** Its value is 102%.

**Q.** How did the “percent of binding” value turn out when B2 was run?
**A.** Its value is 102%.

**Q.** How did the “percent of binding” value turn out when B7 was run?
**A.** The value was 103%.

**Q.** Which “percent of binding” value does the source give for B3 here?
**A.** The value was 105%.

**Q.** Which “percent of binding” value does the source give for B4 here?
**A.** The value was 98%.

**Q.** With B5 as the binder, how does the “percent of binding” value read?
**A.** Its value is 99%.

Molecular target: T7, residue mutated to A: T
Test: as above

**Q.** For B6, which “percent of binding” value is on record?
**A.** Its value is 54%.

**Q.** With B1 as the binder, how does the “percent of binding” value read?
**A.** The value was 48%.

**Q.** For B2, which “percent of binding” value is on record?
**A.** The value was 66%.

**Q.** With B3 as the binder, how does the “percent of binding” value read?
**A.** The value was 16%.
